Assay results: PMC10720262 (2023)

B1: CL-437934 (antibody, V domains shown)
VH: QVQLVASGGAVVQPGRSLRLSCAASGFTFSNSGMHWVRQAPGQGLEWVAIIWYDGGNKYYADSVKGRFTISRDNSKNTLYLQMNSLRAEDTAVYYCVRAYYEILTTYNKDCCYGMDVWGQGTTVTVSS
VL: not shown
modifications: peptides N-terminally acetylated and C-terminally amidated
B2: CL-437762 (antibody, V domains shown)
VH: QVQLVESGGGVVQPGRSLRLSCAASGFTFSNYGMYWVRQAPGKGLEWVAVIWYDGSNKYYADSVKGRFTISRDNSKNTLYLQMNSLRAEDTAFYYCARPQYSGSGSYFDYWGQGTLVTVSS
VL: not shown
modifications: peptides N-terminally acetylated and C-terminally amidated
B3: CL-531383 (antibody, V domains shown)
VH: QVQLVESGGGVVQPGRSLRLSCAASGFTFSSFGMHWVRQTPVKGLEWVALIWYDGSHKFYADSVRGRFIISRDNSKNTLFLQMNSLRAEDTAIYYCAKVINYGSGNYYNNYKYTMDVWGQGTTVTVSS
VL: DIQMTQSPSTLSASVGDRVTITCRASQSISSWLAWYQQKPGKAPKVLIYKASSLESGVPSRFSGSGSGTEFTLTISSLQPDDFATYYCQQYNTYWTFGQGTKVEIK
modifications: peptides N-terminally acetylated and C-terminally amidated
B4: CL-509494 (antibody, V domains shown)
VH: QVQLVESGGGVVQPGRSLRLSCAASGFTFSNFGMHWVRQSPGRGLEWVAIIWYDGSHKFYADSVKGRFTISRDNSKNTLYLQMNSLRAEDTAVYYCAKSEQRTNDHYYKYGMDVWGQGTTVTVST
VL: DIQMTQSPSTLSASVGDRVTITCRASQSISSWLAWYQQKPGKAPTLLIYKASSLESGVPSRFSGSGSGTEFTLTISSLQPDDFATYYCQQYTNYWTFGQGTKVEIK
modifications: peptides N-terminally acetylated and C-terminally amidated
B5: CL-512264 (antibody, V domains shown)
VH: QVQLVESGGGVVQPGRSLRLSCVTSGFTFSNFGMHWVRQAPGKGLEWVAIIWYDGSNKFYADSLKGRFTISRDNSKNTLFLQMNSLRAEDTAVYYCARAHTVTTANDKYGTDVWGQGTTVTVSS
VL: DIQMTQSPSTLSASVGDRVTITCRASQSISSWLAWYQHKPGKAPKLLIYKASSLESGVPSRFSGSGSGTEFTLTISSLQPDDFATYFCQQYNSYWTFGQGTKVEIK
modifications: peptides N-terminally acetylated and C-terminally amidated
B6: CL-510092 (antibody, V domains shown)
VH: QVQLVESGGGVVQPGTSLRLSCAASGFTFSNFGMYWVRQAPGKGLEWVALIWYDGSNKFYEDSVKGRFTISRDNSKNTLYLQMNSLRAEDTAVYYCAKDGGYSGPGKYGFFRHWGQGSLVTVSS
VL: DIQLTQSPSTLSASVGDRVTITCRASQSISNWLAWYQQKPGKAPKLLIYKASSLESGVPSRFSGNGSGTEFTLTISSLQPDDFATYYCHQYNFYWTFGQGTKVEIK
modifications: peptides N-terminally acetylated and C-terminally amidated
B7: CL-440324 (antibody, V domains shown)
VH: QVQLVESGGGVVQPGRSLRLSCAASGFTFRNHGLHWVRQAPGKGLEWVAIIWFDGSNKFYADSVKGRFTISRDNSKNTLYLQMNSLRAEDTAIYYCARVSSHDNGDYGDFDYWGQGTLVTVSS
VL: DIQMTQSPSTLSASVGDRVTITCRASQNISNWLAWYQQKPGKAPKLLIYKASSLESGVPSRFSGSGSGTEFTLTISGLQPDDFATYYCQQYKTYWTFGQGTQVEIK
modifications: peptides N-terminally acetylated and C-terminally amidated
B8: CL-514146 (antibody, V domains shown)
VH: QVQLVESGGGVVQPGRSLRLSCAVSGFTFSNSGMHWVRQAPGKGLEWVAIIWYDGNNKFYADSVKGRFTISRDNSKNTLYLQMNSLRAEDTSIYYCARAYPSGNYGDKYGMDVWGQGTTVTVSS
VL: DIQMTQSPSTLSASVGDRVTITCRASQSISSWLAWFQQKPGNAPKLLIYKASSLESGVPSRFSGSGSGTEFTLTINSLQPDDFATYYCQQYNSFWTFGQGTKVEIK
modifications: peptides N-terminally acetylated and C-terminally amidated
B9: CL-515284 (antibody, V domains shown)
VH: QVQLVGSGGGVVQSGRSLRLSCAASGFTFSNFGMHWVRQTPDKGLEWLAIIWYDGSHKFYVDSVKGRFTISRDNSMNTLFLQMNSLRAEDTGVYYCVRSWNYADSKYGMDVWGQGTTVTVSS
VL: DIQMTQSPSTLSASVGDRVTITCRASQSISSWLAWYQQKPGKAPNLLIYKASSLESGVPSRFSGSGSGTEFTLTISSLQPDDFATYYCQQYYNYWTFGQGTKVEIK
modifications: peptides N-terminally acetylated and C-terminally amidated
B10: CL-513780 (antibody, V domains shown)
VH: QVQLVESGGGVVQPGRSLRLSCTASGFIFSNYGMYWVRQAPGKGLDWVALIWYDGSNKYYVGSVKGRFTISRDNSKNTLYLQMNSLRAEDTAVYYCARAGKYSGSGSYLDSWGQGTLVTVSS
VL: DIQMTPSPSILSASVGDRVTITCRASQNISSWLAWYQQKPGKAPKLLIYKASSLESGVPSRFSGSGSGTEFTLTISSLQPDDFATYFCQQYYSYWTFGQGTKVEIK
modifications: peptides N-terminally acetylated and C-terminally amidated
B11: CL-444424 (antibody, V domains shown)
VH: QVQLVESGGGVVQPGRSLRLSCTASGFTFSNYGMHWIRQAPGKGLEWVAIIWFDGSSQYYADSVKGRFTISRDNSKNTLYLQMNSLRAEDTAVYYCVRALYDSGSLFDFWGLGTLVTVSS
VL: DIQMTQSPSTLSASVGDRVTITCRASQNISSLLAWYQQKPGKAPKLLIYKASSLESGVPSRFSGNGSGTEFTLTVSSLQPDDFATYSCLQYNNYWTFGQGTKVEIK
modifications: peptides N-terminally acetylated and C-terminally amidated
B12: CL-445827 (antibody, V domains shown)
VH: QVQLVASGGGVVQPGRSLRLSCVASGFTFSFFGMHWVRQTPGRGLEWVAIIWYDGGHKFYADSVKGRFTISRDNSKDTLYLQMNSLRAEDTAVYYCARAEDNMARGNIDYSKYGMDVWGQGTTVTVSS
VL: DIQMTQSPSTLSVSIGDRVTITCRASQSISTWLAWYQQKPGKAPKLLIYKASNLESGVPSRFSGSGSGTDFTLTISGLQPDDFATYYCQQYFSYWTFGQGTKVEIK
modifications: peptides N-terminally acetylated and C-terminally amidated
B13: CL-511073 (antibody, V domains shown)
VH: QVQLVESGGGVVQPGRSLRLSCAASGFSFSSHGMHWVRQAPGKGLEWVSIIWYDGSNKFYADSVKGRFTISRDNSKNTLYLQMNSLRAEDTAVYYCARDGYDVLTGHYNWFDPWGQGTLVTVSS
VL: EIVMTQSPATLSVSPGERATLSCRASQSVSSKLAWYQQKPGQAPRLLIYGASTRATGIPARFSGSGSGTDFTLTISSLQSEDFAVYYCQQYNNWWTFGHGTKVEIK
modifications: peptides N-terminally acetylated and C-terminally amidated
B14: CL-440422 (antibody, V domains shown)
VH: QVQLVESGGGVVQPGRSLRLSCAASGFTFSNFGMHWVRQTPDRGLEWVAIIWFDGSNTFYTDSVKGRFTISRDNYMNTLYLQMNSLRAEDTAVYYCARSFYSDSAGSLFDYWGQGTLVTVSS
VL: DIQMTQSPSTLSASVGDRVTITCRASQNINNWVAWYQQKPGKAPKLLIYKASDLETGVPSRFSGSGSGTEFTLTISGLQPDDFATFYCLQNNHYWTFGQGTKVEIK
modifications: peptides N-terminally acetylated and C-terminally amidated
B15: CL-464277 (antibody, V domains shown)
VH: QVQLVASGGGVVQPGRSLRLSCAVSGFTFRNYGMHWVRQDPGRGLEWVAIIWYDGSYKFYADSVKGRFTISRDNSKNTLYLQMNSLRAEDTAVYYCARSYGSLTGDQTKYGMDVWGQGTTVSVSS
VL: not shown
modifications: peptides N-terminally acetylated and C-terminally amidated
B16: CL-447737 (antibody, V domains shown)
VH: QVQLVESGGGVVQPGRSLRLSCAASGFTFSSYGMHWVRQAPGKGLEWVAIIWFDGSNIFYEDSVKGRFTISRDNSKNTLYLQMNSLRAEDTAVYYCAKVWNYDSDYYSMDVWGQGTTVTVSS
VL: not shown
modifications: peptides N-terminally acetylated and C-terminally amidated
B17: CL-509025 (antibody, V domains shown)
VH: QVQLVESGGGVVQPGRSLRLSCVASGFTFSDYGMHWVRQAPGKGLEWVAVIWYDGTKEFFADSVKGRFTISRDNSKDTLYLQMNSLRAEDTGIYYCATYKWNSHLDYWGQGTLVTVSS
VL: EIVLTQSPATLSLSPGERATLSCRASQTISSYLAWYQQKPGQAPRLLIYDASNRATGIPARFSGSGSGTDFTLTISSLEPEDFTVYYCQQRSNWPLTFGGGTKVGIK
modifications: peptides N-terminally acetylated and C-terminally amidated

What follows are binders tested against PfCSP full length (Plasmodium falciparum (isolate NF54), UniProt P19597) (assay: ELISA AUC).
Sequence of PfCSP full length (P19597 20-375): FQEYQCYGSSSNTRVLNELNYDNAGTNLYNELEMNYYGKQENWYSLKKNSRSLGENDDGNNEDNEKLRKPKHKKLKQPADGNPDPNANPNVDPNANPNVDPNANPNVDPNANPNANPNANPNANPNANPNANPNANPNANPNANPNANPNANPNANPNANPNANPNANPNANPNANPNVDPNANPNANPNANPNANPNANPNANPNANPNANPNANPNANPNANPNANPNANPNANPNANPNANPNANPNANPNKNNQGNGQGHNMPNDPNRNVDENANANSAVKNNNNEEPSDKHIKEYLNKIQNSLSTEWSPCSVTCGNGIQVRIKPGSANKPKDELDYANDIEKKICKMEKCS
B1 gave a binding score of 2.4.
Work on B2 yielded a binding score of 2.5.
For B3, the binding score was 2.64.
In the case of B4, the binding score is reported as 1.93.
With B5 the binding score was 2.54.
Binder B6 has a binding score of 2.38.
Work on B7 yielded a binding score of 2.6.
Binder B8 has a binding score of 2.39.
Work on B9 yielded a binding score of 2.19.
B10 showed a binding score of 2.48.
For B11, the binding score was 2.3.
In the case of B12, the binding score is reported as 2.5.
B13 showed a binding score of 2.15.
For B14, the binding score was 2.5.
B15 was tested, and the binding score was 2.5.
Binder B16 has a binding score of 2.4.
Work on B17 yielded a binding score of 1.64.
